Reference: publication PMC10514136, “Peptide-conjugated antimiRs improve myotonic dystrophy type 1 phenotypes by promoting endogenous MBNL1 expression” (Molecular Therapy. Nucleic Acids, 2023)
“And” between values parts separate entries of the source, which are not always exact repeats. Identical values can stand only once. Like-named read-outs stand apart in the source and are kept apart here.

Tests used:
HSALR mice = assay: White blood cell differential count; assay type: in vivo, mouse
Description: Mouse handling and experimental procedures followed the European law regarding laboratory animal care and experimentation (2003/65/C.E.) and were approved by Conselleria de Agricultura, […] (reference no. A1539961490857). We used homozygous transgenic HSA^LR (line 20 b) mice,[90] which were kindly provided by Dr Thornton (Rochester, NY) and were housed and bred in our animal facility. […] The mice were randomly allocated to the different treatments as follows: in each cage, each mouse was ear-marked as it was taken out, and each mouse was then assigned to a different treatment. Animals were injected biweekly intravenously with 150 μL of 1× PBS vehicle (controls; […] Mice were sacrificed 45 days after the first injection and the tissues of interest were frozen in liquid nitrogen for the molecular and histological assays. All the mice used in this study ranged from 5 to 5.5 months of age and all were males. At 45 days post treatment, animals were sacrificed, and blood was collected by cardiac puncture exsanguination with K3-EDTA (Sarstedt, Nümbrecht, Germany). The samples were analyzed by Laboratorios Montoro Botella (Valencia, Spain).

DM1 cells = assay: Cell proliferation assay (CellTiter 96 AQueous), cell growth inhibition after lipofection; assay type: cell-based, human
Protocol: Cells seeded at 10^5 cells/mL in 96-well plates were transfected 24 h later with antimiRs as described previously.[20] After 96 h, cell proliferation was measured using the CellTiter 96 AQueous Non-Radioactive Cell Proliferation Assay (Promega, Madison, WI). Absorbance levels were determined using an Infinite M200 PRO plate reader (Tecan, Männedorf, Switzerland) and the TC50 was calculated using non-linear least-squares regression.

Nfix exon 7 = assay: Alternative splicing of Nfix exon 7 in muscle by RT-PCR (PSI, splice recovery); assay type: in vivo, mouse; details: HSALR mice, individual mice; for Percentage spliced-in (PSI) Nfix Gast: 9.2 mg/kg (mean) i.v. x3, day 45, gastrocnemius; for Percentage spliced-in (PSI) Nfix Quads: 9.2 mg/kg (mean) i.v. x3, day 45, quadriceps
Protocol: (§1) Total RNA from murine gastrocnemius and quadriceps muscle was isolated using the miRNeasy Mini Kit (QIAGEN, Hilden, Germany) according to the manufacturer’s instructions. One microgram of RNA was digested with DNase I (Invitrogen, Carlsbad, CA) and reverse transcribed with SuperScript II (Invitrogen) using random hexanucleotides. For subsequent PCR reactions, 20 ng of cDNA was used with GoTaq polymerase (Promega). Specific primers were used to analyze the alternative splicing of Nfix, Atp2a1, and Clcn1 in mouse samples (both muscles). Gapdh levels established the endogenous reference levels using 0.2 ng of cDNA. PCR products were separated on a 2% agarose gel and quantified using ImageJ software (NIH, Bethesda, MD). PSR index was defined as value%SI minus X¯%DSI , divided by X¯%DSI minus X¯%HSI (SI, splicing inclusion of each sample; DSI, disease splicing inclusion; HSI, healthy splicing inclusion). Overall, PSR indicates the amount in both muscles analyzed. Primer sequences and exons analyzed are available in Cerro-Herreros et al.[20] In the case of off-targets, interleukins, and muscle regeneration marker Mstn-1, primers sequences are available in Table S5. We used 1 ng of mouse tissue cDNA as a template for multiplex qPCR using the QuantiFast Probe PCR Kit reagent. Commercial TaqMan probes (QIAGEN) were used for mouse (Mbnl1 and Mbnl2; FAM-labeled probes) and reference (GAPDH; MAX-labeled probe) genes. Results were normalized to Gapdh endogenous gene expression.
(§2) We used homozygous transgenic HSA^LR (line 20 b) mice,[90] which were kindly provided by Dr Thornton (Rochester, NY) and were housed and bred in our animal facility. Experimental groups were FVB as healthy control and HSA^LR treated with a scrambled ON (SC) and PBS as negative controls, and HSA^LR mice treated with all six experimental CPP-PMOs. The mice were randomly allocated to the different treatments as follows: in each cage, each mouse was ear-marked as it was taken out, and each mouse was then assigned to a different treatment. […] Mice were sacrificed 45 days after the first injection and the tissues of interest were frozen in liquid nitrogen for the molecular and histological assays. All the mice used in this study ranged from 5 to 5.5 months of age and all were males.

[1] = ELISA determination of antimiR conjugate concentrations in tissues; assay type: in vivo, mouse; details: HSALR mice, 9.2 mg/kg (mean) i.v. x3, day 45, hybridization ELISA, background subtracted, individual mice
Protocol: Custom ELISA-based measurements of antimiR conjugate concentrations in brain, kidney, liver, heart, gastrocnemius, and quadriceps from treated HSA^LR mice were performed as described in Burki et al.,[89] using the following phosphorothioate probes: for miR-218 (5′ → 3′) [DIG] T∗T∗G∗T∗G∗C∗T∗TGATCTA∗A∗C∗C∗A∗T∗G∗T [BIO]; for miR-23b (5′ → 3′) [BIO] A∗T∗C∗A∗C∗A∗T∗TGCCAGG∗G∗A∗T∗T∗A∗C∗C [DiG] double-labeled with digoxigenin (DIG) and biotin (BIO). In all cases, a control sample was used to subtract the background (HSA^LR treated with PBS for 9b2 and 9b2-KC ONs; HSA^LR treated with Scramble for 6aKC ONs).
Mouse handling and experimental procedures followed the European law regarding laboratory animal care and experimentation (2003/65/C.E.) and were approved by Conselleria de Agricultura, Generalitat Valenciana (reference no. A1539961490857). We used homozygous transgenic HSA^LR (line 20 b) mice,[90] which were kindly provided by Dr Thornton (Rochester, NY) and were housed and bred in our animal facility. Experimental groups were FVB as healthy control and HSA^LR treated with a scrambled ON (SC) and PBS as negative controls, and HSA^LR mice treated with all six experimental CPP-PMOs. The mice were randomly allocated to the different treatments as follows: in each cage, each mouse was ear-marked as it was taken out, and each mouse was then assigned to a different treatment. Animals were injected biweekly intravenously with 150 μL of 1× PBS vehicle (controls; HSA^LR n = 7 and FVB n = 6) or 150 μL of a solution 1.875 mg/mL of the test CPP-PMOs corresponding to an average dose of 9.2 mg/kg (HSA^LR mice: SC n = 5, 9b2-218 n = 5, 9b2-23b n = 5, […] n = 5, […] n = 5, 6aKC-218 n = 5, and 6aKC-23b n = 5; see Table S6 for precise dosing). Mice were sacrificed 45 days after the first injection and the tissues of interest were frozen in liquid nitrogen for the molecular and histological assays. All the mice used in this study ranged from 5 to 5.5 months of age and all were males.

Atp2a1 exon 22 = assay: Alternative splicing of Atp2a1 exon 22 in muscle by RT-PCR (PSI, splice recovery); assay type: in vivo, mouse; details: HSALR mice, individual mice; for Percentage spliced-in (PSI) Atp2a1 Gast: 9.2 mg/kg (mean) i.v. x3, day 45, gastrocnemius; for Percentage spliced-in (PSI) Atp2a1 Quads: 9.2 mg/kg (mean) i.v. x3, day 45, quadriceps
Protocol: as §1, §2

[2] = HSALR mice, 9.2 mg/kg (mean) i.v. x3, day 45, blood, differential count, mean ± sd

Row | Substance | Basophils (HSALR mice; mouse, in vivo, iv, 9.2 mg/kg) | Eosinophils (HSALR mice; mouse, in vivo, iv, 9.2 mg/kg) | Lymphocytes (HSALR mice; mouse, in vivo, iv, 9.2 mg/kg) | Monocytes (HSALR mice; mouse, in vivo, iv, 9.2 mg/kg) | Seg cells (HSALR mice; mouse, in vivo, iv, 9.2 mg/kg) | TC50 (DM1 cells) | Percentage spliced-in (PSI) Nfix Gast (Nfix exon 7) | Percentage spliced-in (PSI) Nfix Quads (Nfix exon 7) | CPP-PMO concentration (pM), Gastrocnemius ([1]; 9.2 mg/kg) | CPP-PMO concentration (pM), Heart ([1]; 9.2 mg/kg) | CPP-PMO concentration (pM), Kidney ([1]; 9.2 mg/kg) | CPP-PMO concentration (pM), Liver ([1]; 9.2 mg/kg) | CPP-PMO concentration (pM), Quadriceps ([1]; 9.2 mg/kg) | Percentage spliced-in (PSI) Atp2a1 Gast (Atp2a1 exon 22) | Percentage spliced-in (PSI) Atp2a1 Quads (Atp2a1 exon 22) | further results
1 | 6aKC-23b (antisense GGUAAUCCCUGGCAAUGUGAU; all phosphorodiamidate morpholino (PMO), T or U not given here; Pip6aKC peptide conjugated) | 0 ± 0% | 2,40 ± 1,341% | 47,80 ± 12,133% | 17,60 ± 7,537% | 31,2 ± 13,142% | 1.711 µM | 63.59% and 47.55% and 61.79% and 62.43% and 69.22% | 56.32% and 62.29% and 64.55% and 58.42% and 53.11% | 93.86 pM and 1846.67 pM and 1209.72 pM and 472.26 pM and 199.58 pM | 1789.14 pM and 954.01 pM and 1508.23 pM and 1701.45 pM | 174345.23 pM and 110334.18 pM and 239168.85 pM and 16740.44 pM and 230939.23 pM | 4615.98 pM and 9209.58 pM and 10333.80 pM and 76.40 pM and 8623.71 pM | 72.30 pM and 93.71 pM and 165.91 pM and 28.58 pM and 1.72 pM | 14.22% and 26.08% and 16.73% and 17.96% and 14.74% | 29.81% and 23.38% and 17.76% and 24.03% and 33.87% | CPP-PMO concentration (pM), Brain ([1]; 9.2 mg/kg): 0.83 pM and 9.49 pM and 11.43 pM and 25.59 pM and 4.02 pM
2 | 6aKC-218 (antisense ACAUGGUUAGAUCAAGCACAA; all phosphorodiamidate morpholino (PMO), T or U not given here; Pip6aKC peptide conjugated) | 0 ± 0% | 0,60 ± 0,894% | 57,20 ± 12,357% | 21,40 ± 7,127% | 20,4 ± 6,189% | 1.809 µM | 68.36% and 70.85% and 73.58% and 51.68% and 74.79% | 52.44% and 62.29% and 52.77% and 89.96% and 66.72% | 3105.34 pM and 4126.64 pM | 220.63 pM and 8031.17 pM and 1672.26 pM | 807303.00 pM and 163863.50 pM and 282189.80 pM and 288519.00 pM and 763252.10 pM | 11820.61 pM and 1738.96 pM and 6547.20 pM and 6702.77 pM and 6452.86 pM | 56.37 pM and 3449.73 pM and 180.55 pM | 14.70% and 11.51% and 10.78% and 31.20% and 12.62% | 21.08% and 26.96% and 31.16% and 9.84% and 26.51% | CPP-PMO concentration (pM), Brain [1]: 5.54 pM
3 | TCTTACCTCAGTTACAATTTA-Pip9b2 [Scramble, reference compound] | – | – | – | – | – | – | 62.98% and 52.74% and 55.70% and 81.00% and 76.46% | 60.30% and 80.52% and 66.59% and 72.38% and 72.49% | – | – | – | – | – | 6.44% and 27.49% and 24.15% and 5.60% and 15.65% | 18.65% and 34.43% and 18.71% and 17.01% and 7.50% | Basophils (HSALR mice; [2]): 0 ± 0%; Eosinophils (HSALR mice; [2]): 2 ± 0,707%; Lymphocytes (HSALR mice; [2]): 60 ± 14,543%; Monocytes (HSALR mice; [2]): 11,60 ± 7,829%; Seg cells (HSALR mice; [2]): 25,8 ± 8,349%; Stab cells (HSALR mice; [2]): 0,60 ± 0,548%; TC50 (DM1 cells; toxic concentration 50, DM1 cells transfected 24 h after seeding, read after 96 h, absorbance, non-linear least-squares regression): 0.217 µM
